Here are results for ten molecules from article PMC9849366, “Evolutionary fine-tuning of residual helix structure in disordered proteins manifests in complex structure and lifetime” (Communications Biology, 2023).

B1: FITC-DREB2A(246-272) WT (peptide, UniProt O82132 246-272, looked up)
peptide: {FITC′}-NDVDQSHLDSSDMFDVDELLRDLNGDD-NH2
modifications: also: acetylation stated, site not given here
notes: also called fluorescently labeled DREB2A(244-272)-WT; source: synthetic peptide, bought: TAG Copenhagen A/S (>98% purity)
B2: FITC-DREB2A(246-272) R266G (peptide, UniProt O82132 246-272, looked up)
peptide: {FITC′}-NDVDQSHLDSSDMFDVDELLGDLNGDD-NH2
modifications: also: acetylation stated, site not given here
notes: also called fluorescently labeled DREB2A(244-272)-R266G; DREB2A-R266G; source: synthetic peptide, bought: TAG Copenhagen A/S (>98% purity)
B3: FITC-DREB2A(246-272) R266A (peptide, UniProt O82132 246-272, looked up)
peptide: {FITC′}-NDVDQSHLDSSDMFDVDELLADLNGDD-NH2
modifications: also: acetylation stated, site not given here
notes: also called DREB2A-R266A; DREB2A(244-272) variant R266A; source: synthetic peptide, bought: TAG Copenhagen A/S (>98% purity)
B4: DREB2A(244-272)-D267L (peptide, UniProt O82132 244-272, looked up)
chain: WPNDVDQSHLDSSDMFDVDELLRLLNGDD
notes: Expressed as GST-tagged peptide; 13C,15N-labelled for NMR, unlabelled for ITC; also called DREB2A-D267L; source: E. coli BL21(DE3), purified (Glutathione Sepharose 4B, reversed phase Vydac C18)
B5: FITC-DREB2A(246-272) D267L (peptide, UniProt O82132 246-272, looked up)
peptide: {FITC′}-NDVDQSHLDSSDMFDVDELLRLLNGDD-NH2
modifications: also: acetylation stated, site not given here
notes: also called fluorescently labeled DREB2A(244-272)-D267L; DREB2A-D267L; source: synthetic peptide, bought: TAG Copenhagen A/S (>98% purity)
B6: DREB2A(244-272)-R266G (peptide, UniProt O82132 244-272, looked up)
chain: WPNDVDQSHLDSSDMFDVDELLGDLNGDD
notes: Expressed as GST-tagged peptide; 13C,15N-labelled for NMR, unlabelled for ITC; also called DREB2A-R266G; source: E. coli BL21(DE3), purified (Glutathione Sepharose 4B, reversed phase Vydac C18)
B7: RCD1-RST(499-572) (domain or fragment, Arabidopsis thaliana, UniProt Q8RY59 499-572, looked up)
chain: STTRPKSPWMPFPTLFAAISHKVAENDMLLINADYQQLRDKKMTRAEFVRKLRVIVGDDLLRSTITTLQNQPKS
notes: also called AtRCD1-RST; αα-hub RCD1-RST; source: E. coli BL21(DE3), purified (Source 15S cation exchange, Superdex 75 SEC)
B8: DREB2A(244-272)-WT (peptide, UniProt O82132 244-272, looked up)
chain: WPNDVDQSHLDSSDMFDVDELLRDLNGDD
notes: Expressed as GST-tagged peptide; 13C,15N-labelled for NMR, unlabelled for ITC; also called DREB2A-WT; source: E. coli BL21(DE3), purified (Glutathione Sepharose 4B, reversed phase Vydac C18)
B9: FITC-DREB2A(246-272) D267A (peptide, UniProt O82132 246-272, looked up)
peptide: {FITC′}-NDVDQSHLDSSDMFDVDELLRALNGDD-NH2
modifications: also: acetylation stated, site not given here
notes: also called DREB2A-D267A; DREB2A(244-272) variant D267A; source: synthetic peptide, bought: TAG Copenhagen A/S (>98% purity)

Primed or numbered codes have the meaning given here. FITC′ = fluorescein isothiocyanate

The target of test [1] is DREB2A 244-272 (Arabidopsis thaliana) (UniProt O82132). Kind of test: stopped-flow kinetics. The note with it: cited from earlier work.
The target in test [2] is B7. Kind of test: stopped-flow fluorescence spectroscopy; association and displacement (dissociation) kinetics; 10 °C, 50 mM HEPES pH 7.4, 200 mM NaCl. To be noted: both partners purified.
The target in test [3] is B7. Kind of test: stopped-flow fluorescence spectroscopy; 0.1 µM FITC-DREB2A peptide mixed with 1-6 µM RCD1-RST(499-572) (kon); preformed complex 1:0.1 µM displaced with 5-60 µM unlabelled DREB2A(244-272) (koff); Kd from the rate constants; 10 °C, 50 mM HEPES pH 7.4, 100 mM NaCl. The note with it: both partners purified.
Test [4] deals with B7. As to the kind of experiment: stopped-flow fluorescence spectroscopy; association and displacement (dissociation) kinetics; 10 °C, 50 mM HEPES pH 7.4, 800 mM NaCl. To be noted: both partners purified.
Test [5] deals with B7. Kind of test: stopped-flow fluorescence spectroscopy; association kinetics; 10 °C, 50 mM HEPES pH 7.4, 150 mM NaCl. The note with it: both partners purified.
The target of test [6] is B7. Kind of test: stopped-flow fluorescence spectroscopy; association kinetics; 10 °C, 50 mM HEPES pH 7.4, 50 mM NaCl. The note with it: both partners purified.
Test [7] concerns the target B7. Kind of test: stopped-flow fluorescence spectroscopy; association and displacement (dissociation) kinetics; 10 °C, 50 mM HEPES pH 7.4, 500 mM NaCl. To be noted: both partners purified.
In test [8] the target is B7. As to the kind of experiment: stopped-flow fluorescence spectroscopy; association and displacement (dissociation) kinetics; 10 °C, 50 mM HEPES pH 7.4, 300 mM NaCl. The note with it: both partners purified.
Test [9] addresses B7. Kind of test: stopped-flow fluorescence spectroscopy; 0.1 µM FITC-DREB2A peptide mixed with 1-6 µM RCD1-RST(499-572) (kon); preformed complex 1:0.1 µM displaced with 5-60 µM unlabelled DREB2A(244-272) (koff); Kd from the rate constants; 10 °C, 50 mM HEPES pH 7.4, 100 mM NaCl. The note with it: both partners purified. This is another data set of the same source.
Test [10] addresses B7. As to the kind of experiment: ITC; 9-12 µM DREB2A(244-272) peptide in the cell, 92-100 µM RCD1-RST(499-572) in the syringe; 25 °C, 50 mM HEPES pH 7.4, 300 mM NaCl; one set of sites model; n = 3. The note with it: both partners purified. On the technique in general: Isothermal titration calorimetry measures the heat released or taken up as one component is titrated into another.

Test [11] deals with B8. Described as above. The note with it: both partners purified.

The Kd is the concentration at which binding is half-saturated. For RCD1 499-572 (from UniProt Q8RY59), in test [1], the Kd was 0.8 nM.

For orientation: koff means the rate constant with which the complex falls apart. High values mean a short-lived complex, low ones a long-lived complex. A word on the kon: it is the rate constant with which the complex forms. Low readings indicate slower complex formation, high ones faster complex formation. As for B1, the koff in test [2] came to 0.4 s⁻¹; in test [3] it was 0.18 s⁻¹; in [4], 1.78 s⁻¹; in [7], 0.94 s⁻¹; in test [8], 0.53 s⁻¹. The kon in [2] was 4.5e+07 M⁻¹ s⁻¹; in test [3], 2.45e+08 M⁻¹ s⁻¹; in test [4] it was 8e+06 M⁻¹ s⁻¹; in [5], 1.18e+08 M⁻¹ s⁻¹; in [6], 3.35e+08 M⁻¹ s⁻¹; in test [7], 2.3e+07 M⁻¹ s⁻¹. Moreover, in test [8], the kon was 3.6e+07 M⁻¹ s⁻¹.

For B2, the kon is 1.2e+08 M⁻¹ s⁻¹ in test [2]; 2.06e+08 M⁻¹ s⁻¹ in test [3]; 1.06e+07 M⁻¹ s⁻¹ in test [4]; 1.75e+08 M⁻¹ s⁻¹ in [5]; 4.13e+08 M⁻¹ s⁻¹ in test [6]; 2.1e+07 M⁻¹ s⁻¹ in test [7]. For the same molecule, the kon in test [9] is 2.3e+08 M⁻¹ s⁻¹; in test [8], 5.59e+07 M⁻¹ s⁻¹. Further, the koff in test [4] amounted to 5.29 s⁻¹; in test [9], 0.7 s⁻¹. The Kd in [9] came to 3 nM.

In test [9], B3 showed a Kd of 1.5 nM, a koff of 0.383 s⁻¹ and a kon of 2.46e+08 M⁻¹ s⁻¹.

For B4, in test [10], the affinity, expressed as Kd, was 66 nM.

Consider B5, for which the association rate constant (kon) in [2] was 1.42e+08 M⁻¹ s⁻¹; in test [3], 1.78e+08 M⁻¹ s⁻¹; in test [4], 2.2e+07 M⁻¹ s⁻¹; in test [5], 1.49e+08 M⁻¹ s⁻¹; in test [7], 4.5e+07 M⁻¹ s⁻¹; in test [9], 2.35e+08 M⁻¹ s⁻¹. Moreover, in test [8], the kon worked out at 8.1e+07 M⁻¹ s⁻¹. Further, the koff amounted to 0.223 s⁻¹ in [4] and 0.03 s⁻¹ in test [9]. Further, the Kd in test [9] was determined as 0.13 nM.

B6 yielded a Kd in [10] of 369 nM.

The stoichiometry N is the number of molecules, sites or subunits per partner or assembly. Consider B7, for which, in [11], the dH is -68 kJ/mol and the “stoichiometry N” value turned out to be 0.84.

Take B8: the Kd in test [10] was found to be 84 nM.

As to B9, in test [9], the Kd came to 0.32 nM, the koff was determined as 0.07 s⁻¹ and the kon is 2.22e+08 M⁻¹ s⁻¹.
